Reference: paper PMC9348755 (Science (New York, N.y.), 2022)

What was measured:
[1] = target: T1, SARS-CoV-2 S fusion peptide K811[…]825 (SARS-CoV-2); experiment: ELISA; conditions: both partners purified
T1 construct: source: synthetic peptide
T1 chain: KPSKRSFIEDLLFNK

[2] = target: T2, full length SARS-CoV-2 S Wuhan-Hu-1 on HEK293T cells (Severe acute respiratory syndrome …, UniProt P0DTC2); experiment: flow cytometry on cells; conditions: one partner purified
T2 construct: source: HEK293T, transiently transfected, on the cell surface

[3] = target: T3, SARS-CoV S on HEK293T cells (Severe acute respiratory syndrome …, UniProt P59594); experiment: flow cytometry on cells; conditions: one partner purified
T3 construct: source: HEK293T, transfected, on the cell surface

[4] = target: T4, MERS-CoV S on HEK293T cells (MERS-CoV, strain ; entry is …, UniProt K9N5Q8); experiment: flow cytometry on cells; conditions: one partner purified
T4 construct: source: HEK293T, transfected, on the cell surface

NL63 S on HEK293T cells = NL63 S on HEK293T cells (Human coronavirus NL63, GenBank …, UniProt A0A1L2YVI8); experiment: flow cytometry on cells; conditions: one partner purified
229E S on HEK293T cells = target: T5, 229E S on HEK293T cells (Human coronavirus 229E, GenBank …); experiment: flow cytometry on cells; conditions: one partner purified
T5 construct: source: HEK293T, transiently transfected, on the cell surface
T5 sequence (P15423 16-1173): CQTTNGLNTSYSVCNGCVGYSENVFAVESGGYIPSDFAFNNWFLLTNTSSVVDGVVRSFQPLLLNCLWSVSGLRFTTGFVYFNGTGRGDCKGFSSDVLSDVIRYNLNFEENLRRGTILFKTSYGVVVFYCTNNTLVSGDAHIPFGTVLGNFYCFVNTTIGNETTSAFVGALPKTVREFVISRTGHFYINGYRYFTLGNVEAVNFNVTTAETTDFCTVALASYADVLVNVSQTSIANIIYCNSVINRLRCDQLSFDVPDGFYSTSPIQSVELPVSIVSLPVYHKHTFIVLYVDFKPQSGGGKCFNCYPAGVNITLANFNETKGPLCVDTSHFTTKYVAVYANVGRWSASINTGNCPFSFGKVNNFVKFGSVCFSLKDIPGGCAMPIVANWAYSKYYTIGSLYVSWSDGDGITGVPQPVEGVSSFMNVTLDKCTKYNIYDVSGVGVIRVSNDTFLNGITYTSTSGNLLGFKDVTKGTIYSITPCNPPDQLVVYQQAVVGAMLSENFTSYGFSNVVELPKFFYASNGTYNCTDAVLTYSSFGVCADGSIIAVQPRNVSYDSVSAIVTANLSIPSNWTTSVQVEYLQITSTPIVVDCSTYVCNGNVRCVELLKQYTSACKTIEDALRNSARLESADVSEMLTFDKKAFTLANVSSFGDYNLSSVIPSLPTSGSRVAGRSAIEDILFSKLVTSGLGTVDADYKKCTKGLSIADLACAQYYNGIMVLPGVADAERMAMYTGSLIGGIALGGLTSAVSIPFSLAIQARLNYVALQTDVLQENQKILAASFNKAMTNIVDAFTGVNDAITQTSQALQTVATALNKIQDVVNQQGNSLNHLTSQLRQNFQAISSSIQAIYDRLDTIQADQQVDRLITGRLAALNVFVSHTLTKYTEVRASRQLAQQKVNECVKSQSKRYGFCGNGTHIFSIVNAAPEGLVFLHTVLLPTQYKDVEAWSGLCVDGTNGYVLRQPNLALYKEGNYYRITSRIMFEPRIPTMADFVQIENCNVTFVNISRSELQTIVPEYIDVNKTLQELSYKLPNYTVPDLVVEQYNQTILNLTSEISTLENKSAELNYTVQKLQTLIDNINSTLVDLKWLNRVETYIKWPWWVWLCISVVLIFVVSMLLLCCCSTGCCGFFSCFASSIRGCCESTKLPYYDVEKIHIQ

[5] = target: SARS-CoV-2 S protein (commercially available, recombinant) (SARS-CoV-2 (Wuhan-Hu-1 assumed), UniProt P0DTC2); experiment: ELISA; mAbs titrated on commercially available hCoV S proteins; EC50 (Fig. 1E); conditions: both partners purified
[6] = target: OC43 S protein (commercially available, recombinant) (human coronavirus OC43, strain not …, UniProt P36334); experiment: as above; conditions: both partners purified
OC43 S protein (commercially available, recombinant), sequence (P36334 14-1353): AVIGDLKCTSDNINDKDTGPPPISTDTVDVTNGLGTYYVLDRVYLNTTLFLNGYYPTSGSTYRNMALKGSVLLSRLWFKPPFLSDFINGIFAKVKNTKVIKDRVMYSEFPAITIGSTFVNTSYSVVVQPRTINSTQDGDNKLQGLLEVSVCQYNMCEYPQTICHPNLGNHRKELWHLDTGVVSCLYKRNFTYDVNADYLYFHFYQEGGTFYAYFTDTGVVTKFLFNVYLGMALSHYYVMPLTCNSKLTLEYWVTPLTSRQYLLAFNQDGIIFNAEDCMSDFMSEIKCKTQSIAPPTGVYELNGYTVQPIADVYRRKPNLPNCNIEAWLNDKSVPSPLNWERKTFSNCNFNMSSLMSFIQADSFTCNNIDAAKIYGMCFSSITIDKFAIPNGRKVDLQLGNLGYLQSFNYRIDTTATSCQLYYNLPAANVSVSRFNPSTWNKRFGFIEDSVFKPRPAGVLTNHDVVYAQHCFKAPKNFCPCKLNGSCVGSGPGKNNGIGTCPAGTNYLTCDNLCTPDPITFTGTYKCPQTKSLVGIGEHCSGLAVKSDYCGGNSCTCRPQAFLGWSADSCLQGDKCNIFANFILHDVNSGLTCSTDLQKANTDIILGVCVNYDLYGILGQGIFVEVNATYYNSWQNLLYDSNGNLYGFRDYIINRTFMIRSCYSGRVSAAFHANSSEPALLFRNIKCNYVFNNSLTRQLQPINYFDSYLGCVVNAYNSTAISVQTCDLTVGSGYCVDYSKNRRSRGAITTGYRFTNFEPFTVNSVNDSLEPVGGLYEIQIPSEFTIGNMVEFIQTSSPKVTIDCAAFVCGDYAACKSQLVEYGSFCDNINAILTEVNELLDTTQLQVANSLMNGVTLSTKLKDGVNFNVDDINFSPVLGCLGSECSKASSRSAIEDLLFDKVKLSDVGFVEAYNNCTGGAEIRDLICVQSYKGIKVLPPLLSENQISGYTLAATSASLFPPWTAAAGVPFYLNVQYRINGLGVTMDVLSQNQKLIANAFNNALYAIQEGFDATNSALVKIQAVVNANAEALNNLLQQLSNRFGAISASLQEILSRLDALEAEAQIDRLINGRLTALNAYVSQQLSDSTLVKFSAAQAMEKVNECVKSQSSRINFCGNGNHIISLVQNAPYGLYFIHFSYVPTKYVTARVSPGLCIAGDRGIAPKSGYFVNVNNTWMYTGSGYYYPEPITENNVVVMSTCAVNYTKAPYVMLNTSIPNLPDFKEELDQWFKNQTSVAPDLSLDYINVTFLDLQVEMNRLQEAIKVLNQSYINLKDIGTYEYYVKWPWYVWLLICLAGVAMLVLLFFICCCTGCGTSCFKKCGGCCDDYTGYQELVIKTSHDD

[7] = target: HKU1 S protein (commercially available, recombinant) (human coronavirus HKU1, isolate not …, UniProt Q5MQD0); experiment: as above; conditions: both partners purified
HKU1 S protein (commercially available, recombinant), sequence (Q5MQD0 13-1356): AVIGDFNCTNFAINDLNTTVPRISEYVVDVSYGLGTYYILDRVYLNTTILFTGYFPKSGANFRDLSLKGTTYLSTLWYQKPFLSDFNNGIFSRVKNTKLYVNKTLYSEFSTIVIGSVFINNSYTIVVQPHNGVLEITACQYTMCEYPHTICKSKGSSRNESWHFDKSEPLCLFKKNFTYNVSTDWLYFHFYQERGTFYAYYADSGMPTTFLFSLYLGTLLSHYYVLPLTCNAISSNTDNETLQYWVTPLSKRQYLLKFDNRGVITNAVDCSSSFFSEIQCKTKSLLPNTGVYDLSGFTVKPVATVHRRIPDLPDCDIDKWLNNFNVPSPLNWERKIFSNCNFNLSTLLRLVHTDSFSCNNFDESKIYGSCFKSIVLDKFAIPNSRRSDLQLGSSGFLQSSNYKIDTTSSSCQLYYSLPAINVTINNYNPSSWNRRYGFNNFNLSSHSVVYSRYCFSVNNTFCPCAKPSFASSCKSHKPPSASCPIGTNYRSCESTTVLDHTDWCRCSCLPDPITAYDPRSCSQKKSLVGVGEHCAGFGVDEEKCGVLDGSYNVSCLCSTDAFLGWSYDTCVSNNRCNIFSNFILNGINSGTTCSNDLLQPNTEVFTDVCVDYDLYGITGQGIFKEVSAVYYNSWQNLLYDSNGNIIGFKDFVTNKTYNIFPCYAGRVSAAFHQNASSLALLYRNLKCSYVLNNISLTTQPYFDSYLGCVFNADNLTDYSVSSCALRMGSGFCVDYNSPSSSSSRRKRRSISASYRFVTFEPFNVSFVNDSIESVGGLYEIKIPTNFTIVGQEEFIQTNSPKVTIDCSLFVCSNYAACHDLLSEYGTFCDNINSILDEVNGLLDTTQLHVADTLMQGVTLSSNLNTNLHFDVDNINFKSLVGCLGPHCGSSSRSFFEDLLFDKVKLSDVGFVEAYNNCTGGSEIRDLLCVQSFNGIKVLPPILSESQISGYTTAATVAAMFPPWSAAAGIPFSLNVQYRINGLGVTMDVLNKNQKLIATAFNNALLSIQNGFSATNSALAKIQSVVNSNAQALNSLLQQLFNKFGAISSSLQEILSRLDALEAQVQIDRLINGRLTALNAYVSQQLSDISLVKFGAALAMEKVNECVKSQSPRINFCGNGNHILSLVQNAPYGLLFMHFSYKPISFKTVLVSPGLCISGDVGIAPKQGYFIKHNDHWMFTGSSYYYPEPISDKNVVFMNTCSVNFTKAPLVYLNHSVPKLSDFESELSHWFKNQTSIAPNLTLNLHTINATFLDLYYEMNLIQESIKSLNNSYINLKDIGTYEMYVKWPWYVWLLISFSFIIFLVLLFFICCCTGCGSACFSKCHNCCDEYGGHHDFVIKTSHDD

[8] = target: NL63 S protein (commercially available, recombinant) (human coronavirus NL63, strain of …, UniProt A0A1L2YVI8); experiment: as above; conditions: both partners purified
[9] = target: T6, 229E S protein (commercially available, recombinant) (human coronavirus 229E, strain of …); experiment: as above; conditions: both partners purified
T6 chain: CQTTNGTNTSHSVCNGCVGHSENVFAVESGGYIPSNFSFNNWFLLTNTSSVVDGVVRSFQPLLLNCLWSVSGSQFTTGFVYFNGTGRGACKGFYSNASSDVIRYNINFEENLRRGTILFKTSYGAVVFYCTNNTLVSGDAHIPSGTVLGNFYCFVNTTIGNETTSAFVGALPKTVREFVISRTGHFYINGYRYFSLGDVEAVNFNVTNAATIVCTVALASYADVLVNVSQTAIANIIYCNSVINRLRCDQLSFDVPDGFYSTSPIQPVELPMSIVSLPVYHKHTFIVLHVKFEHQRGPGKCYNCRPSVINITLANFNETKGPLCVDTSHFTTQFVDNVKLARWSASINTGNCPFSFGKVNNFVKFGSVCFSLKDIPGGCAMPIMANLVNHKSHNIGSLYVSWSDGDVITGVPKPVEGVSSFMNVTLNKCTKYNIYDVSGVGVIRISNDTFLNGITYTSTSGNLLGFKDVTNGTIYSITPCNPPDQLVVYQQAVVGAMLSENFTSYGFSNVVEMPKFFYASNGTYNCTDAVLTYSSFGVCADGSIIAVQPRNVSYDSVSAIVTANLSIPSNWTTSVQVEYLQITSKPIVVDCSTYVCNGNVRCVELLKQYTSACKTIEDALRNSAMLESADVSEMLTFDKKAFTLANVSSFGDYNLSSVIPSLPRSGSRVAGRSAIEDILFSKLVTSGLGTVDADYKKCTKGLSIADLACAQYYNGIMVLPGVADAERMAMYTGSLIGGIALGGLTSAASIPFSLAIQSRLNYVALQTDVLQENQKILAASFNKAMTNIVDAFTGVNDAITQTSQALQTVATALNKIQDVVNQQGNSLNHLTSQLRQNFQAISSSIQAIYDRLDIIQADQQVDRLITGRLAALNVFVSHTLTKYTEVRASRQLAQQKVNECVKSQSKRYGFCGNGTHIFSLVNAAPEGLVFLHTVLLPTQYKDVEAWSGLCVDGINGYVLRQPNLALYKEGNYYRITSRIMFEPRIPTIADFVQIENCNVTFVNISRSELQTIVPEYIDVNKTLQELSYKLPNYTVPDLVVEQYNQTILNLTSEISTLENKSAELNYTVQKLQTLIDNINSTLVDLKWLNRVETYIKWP

[10] = target: T1, SARS-CoV-2 S fusion peptide K811[…]825; experiment: crystal structure; Fab in complex with the fusion peptide K811-K825; conditions: both partners purified

Measured: binding result

B1: VN01H1 mAb (antibody, V domains shown)
VH: EVQLVESGGGLVLPGGSLRLSCSASGFTFSDFSMHWVRQSPGKGLEYVSAITSSGSSTYYPDSVKGRFTISRDNSKNTLYLQMGSLRVEDTAVYWCVKNSDVFRFPHLYFDVWGRGTLVTVSS
VL: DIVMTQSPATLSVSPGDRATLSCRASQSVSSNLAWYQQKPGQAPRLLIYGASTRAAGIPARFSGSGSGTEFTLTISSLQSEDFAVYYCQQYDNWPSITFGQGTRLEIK
notes: also called Group 3 mAb; fusion peptide-specific mAb
not listed: [10]
binds: all other assays above

B2: VN01H1 Fab (Fab, V domains shown)
VH: B1 VH
VL: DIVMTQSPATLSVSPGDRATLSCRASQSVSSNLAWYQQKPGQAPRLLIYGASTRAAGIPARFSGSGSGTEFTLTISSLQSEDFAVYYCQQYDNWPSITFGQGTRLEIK
binds: [10]

B3: C13C9 mAb (antibody, V domains shown)
VH: EVQLVQSGPEVKKPGTSARVSCKASGFTSKNTALQWVRQARGQPLEWMGWIDISNYITNYAQKFRGRLTITWDLSASMAYMELSSLRSEDTAVYYCAAVGKDDDVLTGGNKYFDHWGQGTLVTVSS
VL: SYELTQPPSVSVSPGQTARITCSGDALPKKYAYWYQQKSGQAPVLVIHEDDKRPSGIPGRFSASSSGTTATLTISGAQVEDEADYYCYSTDTNDNHAFGSGTKLTVL
notes: as for B1
not listed: [10]
binds: all other assays above

B4: C13C9 Fab (Fab, V domains shown)
VH: B3 VH
VL: B3 VL
binds: [10]

B5: C13B8 mAb (antibody, V domains shown)
VH: QVQLQESGPGLVQPSQTLTLTCTVSGDSISNEDYHWTWIRQHPGKGLEWMGYLQYSGNTNYNPSLKSRMTISVDTSKNQFSLRLNSVTAADTAVYFCATSIVLTGMSNKIQPFDYWGQGTLVTVSS
VL: SYELTQPPSVSVSPGQMARITCSGEALPKKYAYWYQQKGGQFPVLVIYKDTERPSGIPERFSGSSSGTIVTLTISGVQPEDEADYYCLSADTSGTWVFGGGTKLTVL
notes: as for B1
not listed: [10]
binds: all other assays above

B6: C13B8 Fab (Fab, V domains shown)
VH: B5 VH
VL: B5 VL
binds: [10]

B7: C77G12 mAb (antibody, V domains shown)
VH: EVQLVESGGGVVQPGRSLRISCAVSGFTFGSYAMHWVRQAPGKGLEWVGVMSSDGHNEYYADSVKGRFTISRDNSRNKLYLEMNNLRVDDTAVFYCARGSDYVDDSPPLHYWGQGTLVTVSS
VL: DIQLTQSPSSLSASIGDRVTITCRASQDIANKLAWFQQAPGKAPKSLIYAASRLQSGVPSQFSGSGSGTDFTLTIESLQAGDFATYFCQQYDSFPFTFGPGTKVDVK
notes: as for B1
not listed: [10]
binds: all other assays above

B8: C77G12 Fab (Fab, V domains shown)
VH: B7 VH
VL: B7 VL
binds: [10]

B9: VP12E7 mAb (antibody, V domains shown)
VH: QVQLVQSGGGVVQPGESLRLSCSGSGFTFNNYIMHWVRQAPGQGLDYVSGIGSDGRNTNYGDSVKGRFTISRDNSKDTLYLQMTSLRAEDTAFYYCVKGLDVLRFLDLSTPSGERLDAFDIWGQGTMVTVSS
VL: DIVMTQSPSFLSASVGDRVTITCRASQGISNYLAWYQQKPGKAPHLLIYAASTLQSGVPSRFSGSGSGTEFTLTISSLQPEDFATYYCQQLNSYPLFTFGPGTKVDIE
notes: as for B1
not listed: [10]
binds: all other assays above

B10: VP12E7 Fab (Fab, V domains shown)
VH: B9 VH
VL: B9 VL
binds: [10]
